What all share (settings): both partners purified
Assay [1] concerns the target T1, recombinant human IL-22R1 (rhIL-22 Rα1) (human, UniProt Q8N6P7 16-228).
T1 construct: recombinant human IL-22 receptor alpha (rhIL-22 Rα1); also called commercial IL-22R1; source: bought: R&D Systems
T1 sequence (looked up): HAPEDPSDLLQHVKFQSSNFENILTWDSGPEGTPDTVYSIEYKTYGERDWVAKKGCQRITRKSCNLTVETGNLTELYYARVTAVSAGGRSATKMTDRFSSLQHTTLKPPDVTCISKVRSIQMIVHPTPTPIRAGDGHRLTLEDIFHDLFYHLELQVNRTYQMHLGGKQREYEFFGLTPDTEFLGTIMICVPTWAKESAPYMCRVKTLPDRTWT
Put plainly: ELISA; receptor (IL-22R1 or IL-22R1-IgG Fc) coated on MaxiSorp plate; serially diluted IL-22 (Fc chimera or His tag); detection by mouse anti-human IgG (Fc)-HRP or anti-His monoclonal antibody-HRP; BSA wells as control.

Assay [2] has as its target T2, recombinant human IL-22R1 (rhIL-22 Rα1) (human, UniProt Q8N6P7 16-228).
T2 construct: human interleukin-22 receptor alpha (IL-22R1), recombinant soluble protein; Probably the extracellular part; also called IL-22 receptor alpha; commercial IL-22R1; source: bought: R&D Systems
T2 sequence (looked up): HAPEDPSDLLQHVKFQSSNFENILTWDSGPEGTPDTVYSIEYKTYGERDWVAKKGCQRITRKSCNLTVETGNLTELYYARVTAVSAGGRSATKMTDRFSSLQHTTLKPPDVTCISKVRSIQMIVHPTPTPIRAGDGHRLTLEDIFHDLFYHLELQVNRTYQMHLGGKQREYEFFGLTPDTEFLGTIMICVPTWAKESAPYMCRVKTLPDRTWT
Put plainly: ELISA; IL-22 on IL-22R1 coated on a MaxiSorp 96-well plate (Fig. S1). Background: ELISA stands for enzyme-linked immunosorbent assay.

Assay [3] has as its target T2, recombinant human IL-22R1 (rhIL-22 Rα1). Description: ELISA; competition: human IL-22R1 coated (1 µg/ml) on MaxiSorp; purified ABD-derived variants serially diluted in PBS-T with 1% BSA with 1 nM IL-22 Fc chimera; IL-22-Fc detected by anti-human IgG (Fc) HRP.

The values that follow come from PMC11446014, “Human IL-22 receptor-targeted small protein antagonist suppress murine DSS-induced colitis” (Cell Communication and Signaling : CCS, 2024).

B1: recombinant human IL-22 protein, Fc Chimera (Fc fusion, UniProt Q9GZX6 34-179, looked up)
chain: APISSHCRLDKSNFQQPYITNRTFMLAKEASLADNNTDVRLIGEKLFHGVSMSERCYLMKQVLNFTLEEVLFPQSDRFQPYMQEVVPFLARLSNRLSTCHIEGDDLHIQRNVQKLKDTVKKLGESGEIKAIGELDLLFMSLRNACI
notes: human interleukin-22 fused to human IgG Fc; also called IL-22-IgG Fc cytokine; IL-22 (Fc chimera); source: bought: Abcam
For the molecule B1, the binding result in assay [1] was “binds”.

B2: human IL-22 (ligand, UniProt Q9GZX6 34-179, looked up)
chain: APISSHCRLDKSNFQQPYITNRTFMLAKEASLADNNTDVRLIGEKLFHGVSMSERCYLMKQVLNFTLEEVLFPQSDRFQPYMQEVVPFLARLSNRLSTCHIEGDDLHIQRNVQKLKDTVKKLGESGEIKAIGELDLLFMSLRNACI
notes: human interleukin-22; it may be m16 or m17; also called hIL-22; IL-22 cytokine; source: bought: Abcam (cell assays)
Turning to B2, the binding result in assay [2] is reported as “binds”.

B3: recombinant human IL-22 protein, Fc Chimera (Fc fusion, UniProt Q9GZX6 34-179, looked up)
chain: APISSHCRLDKSNFQQPYITNRTFMLAKEASLADNNTDVRLIGEKLFHGVSMSERCYLMKQVLNFTLEEVLFPQSDRFQPYMQEVVPFLARLSNRLSTCHIEGDDLHIQRNVQKLKDTVKKLGESGEIKAIGELDLLFMSLRNACI
notes: human interleukin-22; also called IL-22-Fc; IL-22 cytokine; source: bought: Abcam
Turning to B3, the binding result in assay [3] is recorded as “binds”.
